What was measured:
[1] = biological target: actin purified from rabbit skeletal muscle (m. longissimus dorsi) (rabbit) (UniProt P68135)
[2] = biological target: actin purified from rabbit skeletal muscle (m. longissimus dorsi) (rabbit) (UniProt P68135); remark: listed apart in the source
[3] = biological target: actin purified from rabbit skeletal muscle (m. longissimus dorsi) (rabbit) (UniProt P68135); remark: listed apart in the source

pyrene-actin fluorescence excitation and emission intensity after 800 s of polymerization, 4 µM actin (10% pyrene-labeled) with 5.5 nM PEVKII, against actin alone [1]: 16%
peak pyrene fluorescence intensity (total amount of F-actin), 4 µM actin, PEVKII 3.25-32.5 nM, against actin alone [2]: 22%
time to reach the peak pyrene fluorescence intensity, 4 µM actin, PEVKII 3.25-32.5 nM, against actin alone [2]: > 3 times faster
initial rate of actin polymerization (pyrene assay, 4 µM actin), PEVKII 3.25-32.5 nM, against actin alone [3]: > 30 fold
Substance: PEVKII, the middle one-third segment of the human skeletal muscle titin PEVK domain (domain or fragment)
